# Laboratory results: the supplement of paper PMC10126150
# ± gives the standard deviation of the averaged measurements.
# System: ATP
# Test: switch fluorescence ratio, 500 uM ATP over buffer (Cy3 cluster intensity, sum of 5 cycles each) (fold (ratio)); higher = stronger signal-on switching upon ATP binding; sequences stand for … in TCGTCGGCAGCGTCAGATGTGTATAAGAGACAGTTTTTTTTTTTTTTTTTTTTTTTTT…TC
# Conditions: aptamer strand: ATP DNA aptamer (quencher-CACCTGGGGGAGTATTGCGGAGGAAGG + anchor), 100 nM annealed; ATP concentration: 500 uM
# Method in brief: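 After annealing to 100 nM quencher-labelled ATP aptamer, Cy3-labelled switching-strand clusters on a modified Illumina MiSeq flow-cell were imaged in selection buffer. A second image followed after 15 min with 500 uM ATP at 22 °C, and five such buffer/ATP cycles were done, each separated by NaOH stripping and re-annealing. The fluorescence ratio, averaged per switch-domain sequence, is summed target-cycle over summed buffer-cycle Cy3 intensity per cluster, with clusters outside 100-1000 RFU excluded.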
# 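Further: ATP exposure 15 min at 22 °C before imaging.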
row,Sequence,switch fluorescence ratio
1,GCAGTTTTTG,0.9746 ± 0.0056
2,GCATAATTTA,0.9898 ± 0.0096
3,GCATAGGGGG,1.03 ± 0.081
4,GCATATAAAC,1.2 ± 0.17
5,GCATATGGCT,1 ± 0.031
6,GCATATGTCG,1.097 ± 0.0042
7,GCATCACGTA,1.17 ± 0.024
8,GCATCAGGCG,1.01 ± 0.02
9,GCATCGGGGG,0.981 ± 0.037
10,GCATCTAGAT,0.986 ± 0.018
11,GCATGAAACT,1.03 ± 0.034
12,GCATGCGGTC,1.01 ± 0.027
13,GCATGGAAAT,0.985 ± 0.045
14,GCATGGTAGC,0.994 ± 0.037
15,GCATGTAGTG,0.9794 ± 0.005
16,GCATGTATAG,1.015 ± 0.0046
17,GCATGTCGAT,1.02 ± 0.023
18,GCATGTCTGC,0.9862 ± 0.0093
19,GCATTAGTTT,1.04 ± 0.012
20,GCATTATGTT,0.987 ± 0.044
21,GCATTATTCG,1.059 ± 0.0079
22,GCATTATTTG,1.05 ± 0.02
23,GCATTCAGGG,1.09 ± 0.14
24,GCATTCGGCT,1.04 ± 0.069
25,GCATTCGGTT,0.972 ± 0.039

row,Sequence,switch fluorescence ratio
1,GCATTCTCGT,1.029 ± 0.0021
2,GCATTGAGGG,1.04 ± 0.047
3,GCATTGGTAT,0.981 ± 0.011
4,GCATTGTAGG,0.972 ± 0.041
5,GCATTTCTTC,1.03 ± 0.04
6,GCATTTGGTC,1.01 ± 0.023
7,GCATTTTGAA,1.02 ± 0.026
8,GCCAAACGGG,1.13 ± 0.16
9,GCCAAAGCGG,0.997 ± 0.014
10,GCCAACAGTG,1.32 ± 0.12
11,GCCAATGGGG,0.989 ± 0.026
12,GCCAATTAAT,1.01 ± 0.012
13,GCCACAAATT,1.01 ± 0.033
14,GCCAGCGTCC,1.62 ± 0.83
15,GCCAGGCATT,0.989 ± 0.05
16,GCCAGTGCTG,1.017 ± 0.0069
17,GCCATAATTA,0.981 ± 0.018
18,GCCATAGGAG,0.987 ± 0.031
19,GCCATATGTG,1.02 ± 0.015
20,GCCATGGTTG,1.04 ± 0.067
21,GCCATGTGAA,1.004 ± 0.0084
22,GCCATTTATT,0.977 ± 0.024
23,GCCCAATAAG,1.03 ± 0.025
24,GCCCATGGGT,1.07 ± 0.12
25,GCCCATTGTG,1.2 ± 0.072

row,Sequence,switch fluorescence ratio
1,GCCCCCTTCG,1.08 ± 0.065
2,GCCCCGGGGA,1.04 ± 0.011
3,GCCCCGGGGT,1.03 ± 0.056
4,GCCCGGAGAC,1.71 ± 0.025
5,GCCCGGATTT,1 ± 0.047
6,GCCCGGGCGC,1 ± 0.014
7,GCCCGTCCTG,1.04 ± 0.015
8,GCCCTATAGG,1.01 ± 0.011
9,GCCCTGATGC,1.01 ± 0.051
10,GCCCTGCATG,1.01 ± 0.052
11,GCCCTTAGCG,1.06 ± 0.073
12,GCCGAAGGGT,1.02 ± 0.03
13,GCCGAATTTG,1.028 ± 0.0068
14,GCCGCAGGTC,1.23 ± 0.083
15,GCCGCAGTTT,1.31 ± 0.18
16,GCCGCCGTGT,0.983 ± 0.031
17,GCCGGAGTGG,0.982 ± 0.024
18,GCCGGATCTT,1.01 ± 0.02
19,GCCGGATT,1.01 ± 0.04
20,GCCGGGAGGA,1.01 ± 0.032
21,GCCGGGAGGG,0.985 ± 0.025
22,GCCGGGATCG,0.97 ± 0.03
23,GCCGGGCAAC,0.995 ± 0.037
24,GCCGGGCCGG,0.9666 ± 0.0055
25,GCCGGGGTTA,0.9966 ± 0.0088

row,Sequence,switch fluorescence ratio
1,GCCGGTTAGA,0.998 ± 0.03
2,GCCGTAGCTG,1.02 ± 0.037
3,GCCGTAGTCG,1.03 ± 0.042
4,GCCGTATGCG,0.992 ± 0.019
5,GCCGTCTAAG,0.993 ± 0.022
6,GCCGTCTGGC,1.02 ± 0.045
7,GCCGTGGAG,1.0133 ± 0.00012
8,GCCGTGGGGC,0.997 ± 0.061
9,GCCGTGTTTT,1.006 ± 0.0018
10,GCCGTTACTG,1.05 ± 0.031
11,GCCGTTATGG,1.02 ± 0.053
12,GCCTAACACT,1.01 ± 0.04
13,GCCTAAGGGA,1 ± 0.0063
14,GCCTAATTGA,0.98434 ± 0.00034
15,GCCTACGGCC,1.004 ± 0.0021
16,GCCTAGCATA,1.02 ± 0.018
17,GCCTATGCGG,1.01 ± 0.0033
18,GCCTCAAGTT,1.03 ± 0.052
19,GCCTCCCGGG,1.136 ± 0.0053
20,GCCTGAAGGG,1 ± 0.014
21,GCCTGAGGGA,1.05 ± 0.049
22,GCCTGCCGTT,0.996 ± 0.033
23,GCCTTAGCGG,1.03 ± 0.048
24,GCCTTATTTT,1 ± 0.027
25,GCCTTCTGGA,1.05 ± 0.036
